Measured values published in the DeepSol protein solubility set.

Assay: soluble on expression in E. coli; label from the status in PepcDB or PDB records

Row | Sequence | soluble on expression in E. coli
1 | MGSDKIHHHHHHMCVEGLTSSGSVNWHDAWLTLSDGVKLVARLWIPKGEGPWPALVMRQPYGRALASTVTYIHPGWWASHGYLVVVQDVRGQGDSEGHFNGFLQEASDTSQTHAWVRELPECNGRLGTYGFSYQGLTQLLAEPGTPPPDCLAPAMAGVDERNHWSCEGGAHWWHLGLAWGLQLAALQARRCGNWEAWRELRRSLEDDSYLYEGPALLKRHDPDGMSFRWLHQANQNDHGWVVHKPLDSWLRQPMLLLGGWWDPHLNGLLDLYQRSSQVGGSPELHIGPATHLQWWPDAQQLQLEFFDRHLKSSKALTNSRPHGRIWNITSCSWQTFASPTQTTTSANASWSLVSGGMACLDPSEGTLHQNKKGGGVVYVVHDPWRPVQSVGGHLSPKPGVAERSALDQRADVATFTSTALQEPLQLNGIPLLQLTVQSDQPGFDLCVALSIVNCNHSEVKQLSTGFLRVQGEQALRMLPRKVKLQPILADLERGEHLRLSLAGAAWPAIGVNPGHDRHPCGPPGPHCQVVTMTLQLNGSKLRFLSWNSGKIDFDLPQEF | not soluble
2 | MVTSKKCPTCHGKRLSTSVLKCKINNLDIADFTNLSIDDALKFIKKIDSPKANVIIEPLQQQLESLSYIGLNYLTLSRESTSLSGGESQRIKLIRHLNSALSDLVYIIDEPSIGLHPEDIQRINEIILSLKNKGNTVLVVEHDPDVIKIADYIIDLGPLAGKYGGDITFTGSYHELLNSTTHTGDALRRMHQLKSPNLSASNFINLKNVSRNNIKNMTVTLPEQAMTVVTGVAGSGKSSLIHTGLEALADTIFIDQKPAHASSRSNLLTYLNIFDDVRSYFSEVTGLKKSLFSYNSAGACPECHGKGIIKTELAFMPDFTQTCDVCHGKRYKPEVLDVKVEGYNIADILALTVDEAITFFNKNKDIAQPLQALKSTGLNYMTLGQTLDTLSGGEVQRVKLSKYLTKTVHQHIFVFDEPTTGLHEDDIPILIDCFKRLIDEHNTVVIIEHNLTMMTYADWIIDIGPFAGEKGGQLLYQGEPQGLLQINASLTAKHLKRYTERLEHHHHHH | soluble
3 | MSLRLSLLSSTSKYKVTVAEVQRRLSPPECLNASLLGGVLRRAKSKNGGRSLREKLDKIGLNLPAGRRKAAHVTLLTSLVEGEAVHLARDFAYVCEAEFPSKPVAEYLTRPHLGGRNEMAARKNMLLAAQQLCKEFTELLSQDRTPHGTSRLAPVLETNIQNCLSHFSLITHGFGSQAICAAVSALQNYIKEALIVIDKSYMNPGDQSPADSNKTLEKMEKHREGHHHHHH | not soluble
4 | MSLKVLAFDTSSKALSLAILEDKQVLAETTINIKKNHSITLMPAIDFLMASLDWTPKDLDRIVVAEGPGSYTGLRIAVATAKTLAHTLNIELVGMSSLLALVPYQQEGLFIPLMDARRNNVYAGFYENAKPVMAEAHLPFERVIELIKGASQVTFVGEVGPFVEQIQKHLPRTDYKETLPNAANLALLAWDKEADSLHDFVPNYLKRVEAEENWLKNHTESGESYIKRLEGHHHHHH | soluble
5 | MGSDKIHHHHHHLRVKKKWFIPIGILALSSWFLYRENNQIDTTAVTVQSDKLPAAFNDYKILQIADLHGKSFGSRQKVLLKKVNKLQPDVILMTGDLIDSRRNGEEEALLLMKQLTPDYPVYFVTGNHEVRLNLTILPKLEQLGVTVLRNTSVSLEQNGQFIELLGIDDPTTTRWSEGLQEPDGIRQSLDQAQSTAETRSFQLLMAHRPEYLPLYAERKVDLVLSGHAHGGQIRLPFTDGMYAPGQGFFPDLTAGQHTMENTRLIISRGLGNSLFPFRIFNHPELIVVTLRT | not soluble
6 | MSLSYGVKLHVWGERALFTRPEMKVERVSYDIITPSAARGILEAIHWKPAIRWMVDSIQVLKPIRFESIRRNEVGGKLSAASVSKAIKAGRTDTLVSYVEEDRQQRAATLLRDVGYVIAAHFELTDKAGADDNVGKHLDIFNRRARRGQCFQAPCLGTREFPASFALIEDDAAMPAADATLAGERDLGWMLHDIDFADGMTPRFFRARMVDGQVEVPAPENGGVRAEGHHHHHH | soluble
7 | MSELNKEMTLLPPPELVQYVGGDFKKVGKEFLKHFIQIGALKSNEKVLDVGCGVGRMAVPLMNYLNDDGAYYGFDLFKDGITWCQNNISTMRNNFHFEHVDIYNQFYNPEGKEDASQYRFPYEDGTFDFIFLTSVFTHLLPKELEHYVSEIVRVLKKDGRCFITFFLINPESSYYLNAGQSTLGFYHRIENCYVVNKDIPNFAVAYPETDICNLLNKYGLEIINKPHYGLWCGRHEYTSYQDIVLTKKSFLEHHHHHH | soluble
8 | GPGSMCSGLTAFLVDFVQVVPGQTQTSFQTAAPEDSDPGVYDPNTRSWSGTDGLRYRVPLFPIPSERHTREKVRHVKILMDNCRHICISDELPATKEEKRFWASYRFIQYQLFLAPACVVTPPVYVFFKMFHDKLPHFLRGRTMPILTGLAVAEMWAEATYPSHQLLSMALRAKTPMGDAARAEWTRLQPIDIPFYIFSSYQFQQLFYAVPEEYLFGGDLASLCG | soluble
9 | MQDWWEADNRLADWLSMILIQRTIEKNAKQALANLGPHLDLESLIGMDMATLEEYIYPAGFYKQKSIYIKALIKWFHGHGASLDKFQTYSTEDLRKELLGIKGVGEETADAMLLYIFERNVFIADLEHHHHHH | not soluble
10 | HHHHDYDIPTTENLYFQGHMTIHKKGQAHWEGDIKRGKGTVSTESGVLNQQPYGFNTRFEGEKGTNPEELIGAAHAACFSMALSLMLGEAGFTPTSIDTTADVSLDKVDAGFAITKIALKSEVAVPGIDASTFDGIIQKAKAGCPVSQVLKAEITLDYQLKS | soluble
11 | MSLQMKNYQQTLKRMSDRSSGFLGVGVHKQKLGIGAIAIVVTDKDGEIVDCEMMSGVTVFSRFKPLTDFVGMSLNECKVLLQNESVDIALHGALKKIEEQMNRKENVTTEGHHHHHH | not soluble
12 | MGSDKIHHHHHHMTSKIDGLSVSSGLHRRYWNGMVADLWSVDCQSDAGGQYVSSDPRLFILLDAAGEDGADLSMAEGGGKRISGAMARAAHFIPAGLELSTAITGVKSLRHLDLHFDADILRHRLGEDAGLAALHQPRYLLDDPRLLALAELIAADVANPHPLHDLYGDGLVSALLIDVLNIRPTPTHQLPNRKRSKLAAWQLRRVCDFIEAHCLRTIRLEELAGLAGLSPTYFSHAFKASTGLSPHQWQMKARIETVKQRLRDPAVPLTVIAAETGFADAAHFARSFRRAVGLSPSEWRRVRLN | not soluble
13 | PNKDVKIVKEVLLYKGSPFTGNIIMNTEDQKDGYIGGISLKNGHLDGLSELKNDRQGQHMRFTVVGGKFDGELIMNDPSQNTYIMLDINKGAIVKYLADIQGVYKYDLNFVNNLANGSMEAQGQIFTFKNGIAKGPQGQELKLTLNPATGDLEMEAFVNGKAAGKQTIPNVLTPQYLESFLFQSITDTNN | not soluble
14 | MGSDKIHHHHHHMEKQYEYVHEKFRHLVIASNQERIEFLDEPRWVGYAVANKIIDNLVSLMNKPKRPRMFNLLVVGDSNNGKTTLIRHFYDLYGIPFVDSQSDGIRPIILAEAPPSANEKELYISLLERFYVPYRPTDSVAKLRYQTIHLFREYKVKMLIIDEFHSLLVGTPRLQRQVMNAIKMLCNELQIPIVGVGTKDAIRVLHTDPQHASRFDVAELPTWKLDKDFQKLLFQFQGILPLKKCSNLQSPELATKIHTISGGNLGNVHRLLTACAIEAITTGTEQITLDIIEHNSWVQPTQGLRKIIG | not soluble
15 | MGSDKIHHHHHHMQDSPVVLKVSHVAKSFRLPTEQATGLKMAFLNWTKGIKGYTEQKVLRDIDFEVHRGDFFGVVGRNGSGKSTLLKIISQIYVPDQGSVDVYGKLVPFIELGVGFNPELTGRENVYLNGALLGFSHSEIDAMYDDIVEFAELEEFMDQKLKNYSSGMQVRLAFSVAIKAQGDILVLDEVLAVGDEAFQRKCDAFFKKVQADPNKTVILVTHSMDAVKKYCNKAILIRDGEIVVSGDKNQVADQYTLDNLKGNEPLPEKKKQNGEYAIGLNATVPELKIVPKSDLSTDGKHPFQFDVVYEYKDSGTHYVAVNLLDLKRGGIVYDSGSRTLVQTSSGKHRFALEMPIDMLNSGVYRLYASVRVDDGDSADSETKMVAFTNEANGCVFSINNPDHEDYALLNEKAMIIRKRK | not soluble
16 | TRAMEEALFQHFMHQKLGIAYAIHKPFPFFEGLLDNSIITKRMYMESLEACRNLIPVSRVVHNILTQLERTFNLSLLVTLFSQINLREYPNLVTIYRSFKRVGASY | not soluble
17 | GPGSMSLLKGKEVEVTQDDQRRICIFARMHRRRKELTATITRLKEQAAKLSDASDELMIADGAMYLFGETFVAIDNDEAGEWLAKEQAQLQRDQETTEEELKLVESQLSDLKAKLYASLGSQVYLEDE | soluble
18 | MNASAPIPLNETQRLLRIQELCVLEDTSDEVFDEIVAMTAEFFQTPIALVSIVDEHRQWFRARVGLSARETPRNVSFCAYTILSDTLFEIPDATLDERFMNNSLVTGHPDIRYYAGAPLITDDGLALGSLCVIDTKPREPMSEHQTQMLKRFASLVMKRIVSLRL | not soluble
19 | MIGCLPMMRSLERHAVILGLLRQQEHVTIEAMAAACDASLQTIRRDLNQLGEDGRVVRYHGGARLADHARSATYEVRSASHVREKVAAGQLLARFIPDGATLFIAGGSTLALAAQELRACEGLTIVTNNLHAAVTLYDKTGFDVCVLGGTMRPASGSMIGEEAVRMIERYSLDFAVIGTCGISPDGALLEYDQSLVPPLLAMISNARRTVLVADGSKFGAKGIVRAAPLSAVNHFVTDRAPEGRAADLLARTGVKVHHPANPNLSSQDAAADGRELEHHHHHH | not soluble
20 | GSHMSPSDLHLPVPGHPIAAIATPVGVGALAIVRISGAGVLDLADRVFRKVHGSGKLAEAAGYTAHFGRLYDGEEMVDEVIALVFRAPRSFTAEQMVEFTCHGGPVVVGRVLRLMLDNGCRLAEPGEFTRRAFLNGRIDLLQAEAIGEMIHARTESAYRTAVSQMKGDLSVRLGGLREQLIRSCALIELELDFSEEDVEFQSRDELTMQIETLRSEVNRLIDSYQHGRIVSEGVSTVIAGKPNAGKSTLLNTLLGQERAIVSHMPGTTRDYIEECFIHDKTMFRLTDTAGLREAGEEIEHEGIRRSRMKMAEADLILYLLDLGTERLDDELTEIRELKAAHPAAKFLTVANKLDRAANADALIRAIADGTGTEVIGISALNGDGIDTLKQHMGDLVKNLDKLHEASVLVTSLRHYEALRNASDALQNALELIAHESETELIAFELRAALDYVGQITGKVVNEEVLNTIFDKFCIGK | soluble
21 | MKCSKCGREAVYFAKYEGKYYCHKHFNEMVESKVKRTIRKYRMIKKGERIGVAVSGGKDSVVLLHLLAKLRKKFPFEIVAITIDEGIKGYRDKSIKVAKKNAELLGVEHHIYRFKDYIGFTLDETVEIMGARGERLGACSYCGVWRRWLLNKAAEELKVDKLALGLNLDDEVQMFLMNLMRGDVARLGRTGPYYEVIHEGLVPRIKPLREVPEKEIVLYAVLNNIEVDLSECPYAVEAFRAEIRDWLNEMEEKHPGTKYQLLRSYDKIFPLLAKTYAKKVKLNRCKICGQPTSGEICKACQFRLQVKERAEKLKFSLSQR | soluble
22 | MSLDLSVDRSSPVPLYFQLSQQLEAAIEHGALTPGSLLGNEIELAARLGLSRPTVRQAIQSLVDKGLLVRRRGVGTQVVHSKVRRPLELSSLYDDLEAAGQRPATKVLVNTVVPATAEIAAALGVAEDSEVHRIERLRLTHGEPMAYLCNYLPPGLVDLDTGQLEATGLYRLMRAAGITLHSARQSIGARAATSGEAERLGEDAGAPLLTMERTTFDDTGRAVEFGTHTYRPSRYSFEFQLLVRP | soluble
23 | MSLTSQITSNSPVKWKRRTRHDTCGKITLFALQKTMYFDNLSTKKHNLDNLELERSCFEISETMDSSLSIITYSMSVHSLQKNGEPMKQEKQQFIKTDWTIDMINRRQFEKYAIDILTATKDIHRGGWVERIDNKAWQYVRVYENGDIEVLITLQIIRFHKYFDTPVWLQFNPNHLLPADYVQLDHVMKYVDHSHLTRADLANDIYNINLQRYDFGLFGVTRDIYRSLSGDLETRYWGRRKSERQIRLYDKMREMKKHGKADDIPDGITDWWRLEFQFRGGKVESWQEEVEGHHHHHH | not soluble
